Patent US20260265403A1

Key:
[1] = target: human CD24 on cells (human) (UniProt P25063)
[2] = target: human CD24 on cells (human) (UniProt P25063); experiment: flow cytometry (MFI), NALM6 cells [Cont'd) B]
[3] = target: human CD24 on cells (human) (UniProt P25063); experiment: flow cytometry (MFI), MCF-7 cells [Cont'd) B]
[4] = target: human CD24 on cells (human) (UniProt P25063); experiment: flow cytometry (GMFI), SKOV3 cells; EC50 table under the graphs [Cont'd) B]
[5] = target: human CD24 on cells (human) (UniProt P25063); experiment: flow cytometry (GMFI), MCF-7 cells; EC50 table under the graphs
CD24-his protein (human) [6] = target: CD24-his protein (human) (UniProt P25063); experiment: ELISA, CD24-his(HEK 293) [Cont'd) B]
Chain of CD24-his protein (human) (P25063 27-59 limits assumed): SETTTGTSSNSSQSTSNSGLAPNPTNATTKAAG

[7] = target: human CD24 on cells (human) (UniProt P25063); experiment: flow cytometry (GMFI), MCF-7 cells
[8] = target: human CD24 on cells (human) (UniProt P25063); experiment: flow cytometry (GMFI), MCF-7 cells [Cont'd) C]
[9] = target: human CD24 on cells (human) (UniProt P25063); experiment: flow cytometry (GMFI), A549 cells
[10] = target: human CD24 on cells (human) (UniProt P25063); experiment: flow cytometry (GMFI), OVCAR3 cells
CD24-his protein (human) [11] = target: CD24-his protein (human) (UniProt P25063); experiment: ELISA, CD24-his (HEK 293), unit taken from the concentration axis
[12] = target: human CD24 on cells (human) (UniProt P25063); experiment: flow cytometry (GMFI), NALM6 cells
Human CD24 (human) = Human CD24 (human) (UniProt P25063); experiment: Biacore (SPR); antibody as ligand, human CD24 as analyte
Chain of Human CD24 (human) (P25063 27-59 limits assumed): as above

[13] = target: human CD24 on cells (human) (UniProt P25063); experiment: cell-based or functional assay
CD24-his protein (human) [14] = target: CD24-his protein (human) (UniProt P25063); experiment: Siglec10-PE competition assay (gMFI on the sheet); legend: Siglec-10-his-Biotin mixed with the antibody, plate coated with CD24 protein
[15] = target: human CD24 on cells (human) (UniProt P25063); experiment: flow cytometry (GMFI), MC38-hCD24 cells [Cont'd) C]
CD24-his-GST(Ecoli) = experiment: ELISA, CD24-his-GST(Ecoli) [Cont'd) B]
Chain of CD24-his-GST(Ecoli) (chain, as listed by the source limits assumed): as the sequence (P25063 27-59 limits assumed) above

Chain of human CD24 on cells (human) (P25063 27-59): as the sequence (P25063 27-59 limits assumed) above

**Q.** For anti-CD24 ab(SN3) (antibody), which EC50 (read off the curve), phagocytosis of NALM6 cells [1] is on record?
**A.** 0.3 µg/mL

**Q.** And the EC50 (read off the curve), phagocytosis of OVCAR3 cells [1]?
**A.** 0.7 µg/mL

**Q.** What about the EC50 (read off the curve) [2] of the same substance?
**A.** 0.09 µg/mL

**Q.** And the EC50 (read off the curve) [3]?
**A.** 0.1 µg/mL

**Q.** With human isotype IgG4 (antibody) as the substance, how does the EC50 [4] read?
**A.** 3.48 µg/mL

**Q.** And the EC50 [5]?
**A.** 12.9 µg/mL

**Q.** IMM47H (antibody) was tested. Which EC50 [4] did it give?
**A.** 0.38 µg/mL

**Q.** And the EC50 (read off the curve) (CD24-his protein (human) [6])?
**A.** 0.03 µg/mL

**Q.** And the EC50 (read off the curve) [7]?
**A.** 0.5 µg/mL

**Q.** And the EC50 (read off the curve) [8]?
**A.** 0.3 µg/mL

**Q.** What about the EC50 (read off the curve) [9] of the same substance?
**A.** 0.3 µg/mL

**Q.** What about the EC50 (read off the curve) [10] of the same substance?
**A.** 0.4 µg/mL

**Q.** What about the EC50 (CD24-his protein (human) [11]) of the same substance?
**A.** 0.0277 µg/mL

**Q.** What about the EC50 [5] of the same substance?
**A.** 0.53 µg/mL

**Q.** What about the EC50 (read off the curve) [12] of the same substance?
**A.** 0.3 µg/mL

**Q.** What about the Kd (Human CD24 (human)) of the same substance?
**A.** 165 nM

**Q.** What does the source list for NS-17(SWA11) (antibody)?
**A.** EC50 of Phagocytosis assay, IgG1, Kappa; MCF-7 [13]: 0.02 µg/mL; EC50 of Phagocytosis assay, IgG1, Kappa; NALM6 [13]: 1.01 µg/mL; EC50 of Phagocytosis assay, IgG1, Kappa; OVCAR3 [13]: 0.91 µg/mL; EC50 of Phagocytosis assay, IgG4, Kappa; MCF-7 [13]: 0.09 µg/mL; EC50 of Phagocytosis assay, IgG4, Kappa; NALM6 [13]: 0.18 µg/mL

**Q.** Which results are given for GB7011 (antibody)?
**A.** EC50 (read off the curve) (CD24-his protein (human) [6]): 0.02 µg/mL; IC50 (read off the curve) (CD24-his protein (human) [14]): 2 µg/mL; EC50 (read off the curve) [15]: 0.3 µg/mL; EC50 (read off the curve) [7]: 0.3 µg/mL; EC50 (read off the curve) [8]: 0.4 µg/mL; EC50 (read off the curve) [9]: 0.3 µg/mL; EC50 (read off the curve) (CD24-his-GST(Ecoli)): 0.02 µg/mL; EC50 (read off the curve) [10]: 0.7 µg/mL; EC50 (CD24-his protein (human) [11]): 0.0202 µg/mL; EC50 (read off the curve) [12]: 0.6 µg/mL; Kd (Human CD24 (human)): 12.4 nM; koff (Human CD24 (human)): 0.0104 s⁻¹; kon (Human CD24 (human)): 839000 M⁻¹ s⁻¹
